Source: IntAct's records for PubMed 27951647

B1: Acid stress protein IbaG (Escherichia coli (strain K12)), P0A9W6 (parent)
chain: MENNEIQSVLMNALSLQEVHVSGDGSHFQVIAVGELFDGMSRVKKQQTVYGPLMEYIADNRIHAVSIKAYTPAEWARDRKLNGF
partner: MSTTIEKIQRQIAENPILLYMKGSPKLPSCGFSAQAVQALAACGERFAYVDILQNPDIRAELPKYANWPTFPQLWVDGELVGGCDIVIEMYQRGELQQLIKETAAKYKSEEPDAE

Variants of: B1
Details: with glrx4_ecoli grxD

Effect of a mutation on the interaction, with no effect:
MENNEIQSVLMNALSLQEVHVSGDGSAFQVIAVGELFDGMSRVKKQQTVYGPLMEYIADNRIHAVSIKAYTPAEWARDRKLNGF [H27A]
MENNEIQSVLMNALSLQEVHVSGDGSCFQVIAVGELFDGMSRVKKQQTVYGPLMEYIADNRIHAVSIKAYTPAEWARDRKLNGF [H27C]
MENNEIQSVLMNALSLQEVHVSGDGSHFQVIAVGELFDGMSRVKKQQTVYGPLMEYIADNRIAAVSIKAYTPAEWARDRKLNGF [H63A]
MENNEIQSVLMNALSLQEVHVSGDGSHFQVIAVGELFDGMSRVKKQQTVYGPLMEYIADNRICAVSIKAYTPAEWARDRKLNGF [H63C]
MENNEIQSVLMNALSLQEVHVSGDGAHFQVIAVGELFDGMSRVKKQQTVYGPLMEYIADNRIHAVSIKAYTPAEWARDRKLNGF [S26A]
